Experimental data: publication PMC10499876, “Arabidopsis TCP4 transcription factor inhibits high temperature-induced homeotic conversion of ovules”

Biological target: T1, TCP4 DNA binding domain (Arabidopsis thaliana, UniProt Q8LPR5 45-103)
T1 sequence: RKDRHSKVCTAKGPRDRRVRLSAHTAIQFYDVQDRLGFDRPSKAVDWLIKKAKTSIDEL
Experiment: EMSA; EMSA: ~180 ng protein + ~200 ng dsDNA, 4 °C 20 min; DNA annealed in 25 mM Tris, 100 mM NaCl pH 8.0; 7% native PAGE in 0.5x TBE, ethidium bromide; binding buffer not stated
Conditions: protein: recombinant; tags: C-terminal His (pET-21b); chain copies: 2; blunt

B1: CRC promoter probe (dsDNA)
DNA 1: CAGGAAAGGACCATTCTTAA
DNA 2: TTAAGAATGGTCCTTTCCTG
B1: binds.
